{"source": "paper PMC12157500", "key": {"[1]": {"target": "57CrGPDH705-FLAG, di-domain glycerol-3-phosphate dehydrogenase from Chlamydomonas reinhardtii with 30 additional N-terminal amino acids (Chlamydomonas reinhardtii)", "test": "SEC"}, "[2]": {"target": "87CrGPDH705-FLAG, di-domain glycerol-3-phosphate dehydrogenase from Chlamydomonas reinhardtii with the chloroplast targeting sequence removed (Chlamydomonas reinhardtii)", "test": "SEC"}}, "data": [{"substance": "57CrGPDH705-FLAG, di-domain glycerol-3-phosphate dehydrogenase from Chlamydomonas reinhardtii with 30 additional N-terminal amino acids (enzyme)", "values": [{"measurement": "stoichiometry N", "setting": "[1]", "value": 5}]}, {"substance": "87CrGPDH705-FLAG, di-domain glycerol-3-phosphate dehydrogenase from Chlamydomonas reinhardtii with the chloroplast targeting sequence removed (enzyme)", "values": [{"measurement": "stoichiometry N", "setting": "[2]", "value": 4}]}]}
